The target in this experiment is NlpA-80R(scFv).

B1: M18.1 Hum IgG (antibody, V domains shown)
VH: EVQLVESGGGLVQPGGSLRLSCADSGYAFNSSWMNWVRQAPGKGLEWVGRIYPGDGDSNYNGKFEGRAIISADKSSSTAYLQMNSLRAEDTAVYYCARSGLLRYAMDYWGQGTLVTVSS
VL: DIQMTQSPSSLSASVGDRVTVTCRASQGIRNYLNWYQQKPGKAPKFLIYYTSRLLPGVPSRFSGSGSGTDYTLTINSLEQEDIATYYCQQGNTPPWTFGQGTKVEIKR
Regarding B1, the M (FL1-Height) was 4.

(Values after patent publication US20130303393A1.)
